The values that follow come from the supplement of paper PMC5998384.

Data set [1] relates to HeLa Kyoto. As to the kind of experiment: solubility in G1/S (NP-40 vs SDS abundance) (log2 ratio); higher = more soluble. Conditions: cell cycle stage: G1/S.
Data set [2] has as its system HeLa Kyoto. As to the kind of experiment: melting temperature (median over replicates), in situ; higher = more thermally stable.
Data set [3] deals with HeLa Kyoto. As to the kind of experiment: solubility change mitosis vs G1/S (difference of NP-40 vs SDS log2 ratios) (log2 ratio difference); higher = more soluble in mitosis.
The subject of data set [4] is HeLa Kyoto. As to the kind of experiment: thermal stability score vs G1/S (z-score of summed log2 fold changes over temperatures); higher = more thermally stable than in G1/S.
The mark [5] stands for this setting: cell cycle stage: early G1 (4.5 h after nocodazole release).
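Wherever melting temperature (median over replicates), in situ is given: HeLa Kyoto cells synchronized by double thymidine or nocodazole block, proteins quantified by TMT10plex mass spectrometry, three independent biological replicates.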
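Wherever solubility change mitosis vs G1/S (difference of NP-40 vs SDS log2 ratios) is given: synchronized HeLa Kyoto cells (double thymidine block for G1/S, nocodazole release for mitosis), protein amounts in NP-40 versus SDS lysates quantified by mass spectrometry, three biological replicates.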
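Wherever solubility in G1/S (NP-40 vs SDS abundance) is given: HeLa Kyoto cells arrested at G1/S by double thymidine block, proteins quantified by TMT10plex mass spectrometry in mild NP-40 versus SDS extracts, three biological replicates.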
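Wherever thermal stability score vs G1/S (z-score of summed log2 fold changes over temperatures) is given: synchronized HeLa Kyoto cells, proteins quantified by TMT10plex mass spectrometry, three biological replicates, mitosis taken 0.5 h after nocodazole release, G1/S directly after double thymidine block.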

Regarding “MFEEPEWAEAAPVAAGLGPVISRPPPAASSQNKGSKRRQLLATLRALEAASLSQHPPSLCISDSEEEEEERKKKCPKKASFASASAEVGKKGKKKCQKQGPPCSDSEEEVERKKKCHKQALVGSDSAEDEKRKRKCQKHAPINSAQHLDNVDQTGPKAWKGSTTNDPPKQSPGSTSPKPPHTLSRKQWRNRQKNKRRCKNKFQPPQVPDQAPAEAPTEKTEVSPVPRTDSHEARAGALRARMAQRLDGARFRYLNEQLYSGPSSAAQRLFQEDPEAFLLYHRGFQSQVKKWPLQPVDRIARDLRQRPASLVVADFGCGDCRLASSIRNPVHCFDLASLDPRVTVCDMAQVPLEDESVDVAVFCLSLMGTNIRDFLEEANRVLKPGGLLKVAEVSSRFEDVRTFLRAVTKLGFKIVSKDLTNSHFFLFDFQKTGPPLVGPKAQLSGLQLQPCLYKRR [RRP8]”, in the data set with HeLa Kyoto [1], the “solubility in G1/S (log2)” value was -1.46. For the same sequence, the melting temperature in the data set on HeLa Kyoto [2] (cell cycle stage: G1/S) stood at 49.1 °C; in the data set with HeLa Kyoto [2] (cell cycle stage: mitosis), 51.7 °C. In addition, the “solubility change mitosis (log2)” value in the data set on HeLa Kyoto [3] was determined as 0.852. Besides, the thermal stability score in the data set on HeLa Kyoto [4] (setting [5]) came out at 1.48; in the data set on HeLa Kyoto [4] (cell cycle stage: mitosis), 2.48.
Turning to “MFFWCACCLMVAWRVSASDAEHCPELPPVDNSIFVAKEVEGQILGTYVCIKGYHLVGKKTLFCNASKEWDNTTTECRLGHCPDPVLVNGEFSSSGPVNVSDKITFMCNDHYILKGSNRSQCLEDHTWAPPFPICKSRDCDPPGNPVHGYFEGNNFTLGSTISYYCEDRYYLVGVQEQQCVDGEWSSALPVCKLIQEAPKPECEKALLAFQESKNLCEAMENFMQQLKESGMTMEELKYSLELKKAELKAKLL [C4BPB]”, the “solubility in G1/S (log2)” value in the data set on HeLa Kyoto [1] is 0.187. The melting temperature in the data set on HeLa Kyoto [2] (cell cycle stage: G1/S) and in the data set with HeLa Kyoto [2] (cell cycle stage: mitosis) was 54.8 °C throughout. The “solubility change mitosis (log2)” value in the data set with HeLa Kyoto [3] is -0.0172. Further, the figures for the thermal stability score in the data set with HeLa Kyoto [4] (setting [5]) and in the data set on HeLa Kyoto [4] (cell cycle stage: mitosis) were 5.14 and 5.56, respectively.
Consider “MFGAAGRQPIGAPAAGNSWHFSRTMEELVHDLVSALEESSEQARGGFAETGDHSRSISCPLKRQARKRRGRKRRSYNVHHPWETGHCLSEGSDSSLEEPSKDYRENHNNNKKDHSDSDDQMLVAKRRPSSNLNNNVRGKRPLWHESDFAVDNVGNRTLRRRRKVKRMAVDLPQDISNKRTMTQPPEGCRDQDMDSDRAYQYQEFTKNKVKKRKLKIIRQGPKIQDEGVVLESEETNQTNKDKMECEEQKVSDELMSESDSSSLSSTDAGLFTNDEGRQGDDEQSDWFYEKESGGACGITGVVPWWEKEDPTELDKNVPDPVFESILTGSFPLMSHPSRRGFQARLSRLHGMSSKNIKKSGGTPTSMVPIPGPVGNKRMVHFSPDSHHHDHWFSPGARTEHDQHQLLRDNRAERGHKKNCSVRTASRQTSMHLGSLCTGDIKRRRKAAPLPGPTTAGFVGENAQPILENNIGNRMLQNMGWTPGSGLGRDGKGISEPIQAMQRPKGLGLGFPLPKSTSATTTPNAGKSA [GPATCH2]”, for which the “solubility in G1/S (log2)” value in the data set with HeLa Kyoto [1] amounted to 0.0278. Further, the melting temperature with HeLa Kyoto [2] (cell cycle stage: G1/S) came to 51.7 °C; with HeLa Kyoto [2] (cell cycle stage: mitosis), 53 °C. The “solubility change mitosis (log2)” value with HeLa Kyoto [3] is -0.0138. The thermal stability score in the data set with HeLa Kyoto [4] (setting [5]) is -0.791; in the data set with HeLa Kyoto [4] (cell cycle stage: mitosis), -1.01.
“MFGAGDEDDTDFLSPSGGARLASLFGLDQAAAGHGNEFFQYTAPKQPKKGQGTAATGNQATPKTAPATMSTPTILVATAVHAYRYTNGQYVKQGKFGAAVLGNHTAREYRILLYISQQQPVTVARIHVNFELMVRPNNYSTFYDDQRQNWSIMFESEKAAVEFNKQVCIAKCNSTSSLDAVLSQDLIVADGPAVEVGDSLEVAYTGWLFQNHVLGQVFDSTANKDKLLRLKLGSGKVIKGWEDGMLGMKKGGKRLLIVPPACAVGSEGVIGWTQATDSILVFEVEVRRVKFARDSGSDGHSVSSRDSAAPSPIPGADNLSADPVVSPPTSIPFKSGEPALRTKSNSLSEQLAINTSPDAVKAKLISRMAKMGQPMLPILPPQLDSNDSEIEDVNTLQGGGQPVVTPSVQPSLHPAHPALPQMTSQAPQPSVTGLQAPSAALMQVSSLDSHSAVSGNAQSFQPYAGMQAYAYPQASAVTSQLQPVRPLYPAPLSQPPHFQGSGDMASFLMTEARQHNTEIRMAVSKVADKMDHLMTKVEELQKHSAGNSMLIPSMSVTMETSMIMSNIQRIIQENERLKQEILEKSNRIEEQNDKISELIERNQRYVEQSNLMMEKRNNSLQTATENTQARVLHAEQEKAKVTEELAAATAQVSHLQLKMTAHQKKETELQMQLTESLKETDLLRGQLTKVQAKLSELQETSEQAQSKFKSEKQNRKQLELKVTSLEEELTDLRVEKESLEKNLSERKKKSAQERSQAEEEIDEIRKSYQEELDKLRQLLKKTRVSTDQAAAEQLSLVQAELQTQWEAKCEHLLASAKDEHLQQYQEVCAQRDAYQQKLVQLQEKCLALQAQITALTKQNEQHIKELEKNKSQMSGVEAAASDPSEKVKKIMNQVFQSLRREFELEESYNGRTILGTIMNTIKMVTLQLLNQQEQEKEESSSEEEEEKAEERPRRPSQEQSASASSGQPQAPLNRERPESPMVPSEQVVEEAVPLPPQALTTSQDGHRRKGDSEAEALSEIKDGSLPPELSCIPSHRVLGPPTSIPPEPLGPVSMDSECEESLAASPMAAKPDNPSGKVCVREVAPDGPLQESSTRLSLTSDPEEGDPLALGPESPGEPQPPQLKKDDVTSSTGPHKELSSTEAGSTVAGAALRPSHHSQRSSLSGDEEDELFKGATLKALRPKAQPEEEDEDEVSMKGRPPPTPLFGDDDDDDDIDWLG [FKBP15]”: the “solubility in G1/S (log2)” value in the data set on HeLa Kyoto [1] came out at 0.0656. In addition, the melting temperature was determined as 49.6 °C with HeLa Kyoto [2] (cell cycle stage: G1/S) and 50 °C in the data set with HeLa Kyoto [2] (cell cycle stage: mitosis). The “solubility change mitosis (log2)” value in the data set with HeLa Kyoto [3] was -0.0387. The thermal stability score was -0.146 in the data set on HeLa Kyoto [4] (setting [5]) and 1.12 with HeLa Kyoto [4] (cell cycle stage: mitosis).
Regarding “MFHLRTCAAKLRPLTASQTVKTFSQNRPAAARTFQQIRCYSAPVAAEPFLSGTSSNYVEEMYCAWLENPKSVHKSWDIFFRNTNAGAPPGTAYQSPLPLSRGSLAAVAHAQSLVEAQPNVDKLVEDHLAVQSLIRAYQIRGHHVAQLDPLGILDADLDSSVPADIISSTDKLGFYGLDESDLDKVFHLPTTTFIGGQESALPLREIIRRLEMAYCQHIGVEFMFINDLEQCQWIRQKFETPGIMQFTNEEKRTLLARLVRSTRFEEFLQRKWSSEKRFGLEGCEVLIPALKTIIDKSSENGVDYVIMGMPHRGRLNVLANVIRKELEQIFCQFDSKLEAADEGSGDVKYHLGMYHRRINRVTDRNITLSLVANPSHLEAADPVVMGKTKAEQFYCGDTEGKKVMSILLHGDAAFAGQGIVYETFHLSDLPSYTTHGTVHVVVNNQIGFTTDPRMARSSPYPTDVARVVNAPIFHVNSDDPEAVMYVCKVAAEWRSTFHKDVVVDLVCYRRNGHNEMDEPMFTQPLMYKQIRKQKPVLQKYAELLVSQGVVNQPEYEEEISKYDKICEEAFARSKDEKILHIKHWLDSPWPGFFTLDGQPRSMSCPSTGLTEDILTHIGNVASSVPVENFTIHGGLSRILKTRGEMVKNRTVDWALAEYMAFGSLLKEGIHIRLSGQDVERGTFSHRHHVLHDQNVDKRTCIPMNHLWPNQAPYTVCNSSLSEYGVLGFELGFAMASPNALVLWEAQFGDFHNTAQCIIDQFICPGQAKWVRQNGIVLLLPHGMEGMGPEHSSARPERFLQMCNDDPDVLPDLKEANFDINQLYDCNWVVVNCSTPGNFFHVLRRQILLPFRKPLIIFTPKSLLRHPEARSSFDEMLPGTHFQRVIPEDGPAAQNPENVKRLLFCTGKVYYDLTRERKARDMVGQVAITRIEQLSPFPFDLLLKEVQKYPNAELAWCQEEHKNQGYYDYVKPRLRTTISRAKPVWYAGRDPAAAPATGNKKTHLTELQRLLDTAFDLDVFKNFS [OGDH]”, the “solubility in G1/S (log2)” value with HeLa Kyoto [1] was 0.0621. Moreover, the melting temperature in the data set on HeLa Kyoto [2] (cell cycle stage: G1/S) worked out at 52 °C; with HeLa Kyoto [2] (cell cycle stage: mitosis) it was 51.7 °C. For the same sequence, the “solubility change mitosis (log2)” value with HeLa Kyoto [3] was -0.178. The thermal stability score in the data set on HeLa Kyoto [4] (setting [5]) was -0.752; in the data set on HeLa Kyoto [4] (cell cycle stage: mitosis) it was -1.63.
